Measurements taken from PMC6295060.

Experiments:
DMAP1 [1] = target: DMAP1 (UniProt Q9NPF5); assay: co-IP with anti-Flag antibody; conditions: reference: WT Flag-rBub3; sites S211
DMAP1 [2] = target: DMAP1 (UniProt Q9NPF5); assay: pull-down of His-Bub3 and GST-DMAP1; conditions: sites S211
DMAP1 [3] = target: DMAP1 (UniProt Q9NPF5); assay: co-IP; conditions: reference: WT Bub3, mitotic arrest; sites S211

## Bub3 (from UniProt O43684) Flag-rBub3 S211A
DMAP1 [1]
  binding against the reference: lost

## Bub3 (from UniProt O43684) His-Bub3 S211A
DMAP1 [2]; reference: WT His-Bub3
  binding against the reference: lost

## Bub3 (from UniProt O43684) Bub3 S211A, mitotic arrest
DMAP1 [3]
  binding against the reference: weaker

## Bub3 (from UniProt O43684) WT His-Bub3 with purified p38
DMAP1 [2]; reference: WT His-Bub3 without p38
  binding against the reference: gained
